Experiments:
[1] = system: primary human cell cultures (11 cell types); test: Custom gene array, 11 human cell types in normoxia or hypoxia for 6 hr and 18 hr; assay type: cell-based;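 on mRNA expression level, #1 HY 18 hr: cell type #1 is adipocyte from subcutaneous adult adipose tissue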;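 on mRNA expression level, #1 HY 6 hr: cell type #1 is adipocyte from subcutaneous adult adipose tissue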;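 on mRNA expression level, #1 NO: cell type #1 is adipocyte from subcutaneous adult adipose tissue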;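 on mRNA expression level, #2 HY 18 hr: cell type #2 is fetal cardiomyocyte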;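 on mRNA expression level, #2 HY 6 hr: cell type #2 is fetal cardiomyocyte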;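 on mRNA expression level, #2 NO: cell type #2 is fetal cardiomyocyte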;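 on mRNA expression level, #3 HY 6 hr: cell type #3 is human umbilical vein endothelial cells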;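 on mRNA expression level, #3 NO: cell type #3 is human umbilical vein endothelial cells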;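 on mRNA expression level, #4 HY 18 hr: cell type #4 is adult dermal fibroblast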;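 on mRNA expression level, #4 HY 6 hr: cell type #4 is adult dermal fibroblast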;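 on mRNA expression level, #4 NO: cell type #4 is adult dermal fibroblast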;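 on mRNA expression level, #5 HY 6 hr: cell type #5 is adult hepatocyte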;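 on mRNA expression level, #5 NO: cell type #5 is adult hepatocyte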;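 on mRNA expression level, #6 HY 6 hr: cell type #6 is blood-derived macrophage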;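 on mRNA expression level, #6 NO: cell type #6 is blood-derived macrophage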
How it was run: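 Eleven primary, unmodified human cell types (one non-primary neuronal type) held in normoxia or hypoxia for 6 hr and 18 hr. RNA hybridised to duplicate or triplicate custom arrays, normalised per array to reference genes. Expression given relative to each gene's median across all conditions.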

human macrophages = test: Custom gene array, macrophages with no cytokines, IL-10 or LPS + IFN, in normoxia and hypoxia; assay type: cell-based; conditions: Table 15, referenced to the median value of that gene throughout all 6 conditions
How it was run: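 Cultured macrophages were left untreated or given IL-10 or LPS + IFN, each at 100 ng/ml final, for 6 hr under normoxia or hypoxia (0.1% oxygen). Six conditions in total.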

B1: p1D24 (nucleic acid, listed as Homo Sapiens)
DNA: TTCTATCAGAAATTGTATTTATTTACCAGCATTTATGGCAAATGGCCAGACCTGGGCAGGGTGGTAGCAATGATAGATTTTACAAATTAAGGCATTGTTCTTTATTTCAAANTTTTCATTTACCNATATTTTCCTTGGTCTTAGAAATATGAATANTTTAGAGCTGGCAATACTCACCATCAGGATATAATAAACGGAGGTTTCTTTNTCCGAAATCCATAAANTGTAGTANTACTCTNTTGTACTTTTAAAATTCCNATTTTTGCAGTNGGCTTCCTCTCAGTGATTTAGTTAGGNAGTTTTGGTACATTTTGGNGGGGTCATAAACATGTTCATAGGATAGGAGTACNGGGCATTTNTGGAAAAACCCG
modifications: EST array clone; misc_feature 112, 125, 156, 208, 224, 232, 239, 258, 270, 297, 316, 350,359: n = A,T,C or G
[1]; cell type #1, hypoxia 6 hr
  mRNA expression level, #1 HY 6 hr: 0.71
[1]; cell type #1, hypoxia 18 hr
  mRNA expression level, #1 HY 18 hr: 1.39
[1]; cell type #1, normoxia
  mRNA expression level, #1 NO: 0.98
[1]; cell type #2, hypoxia 6 hr
  mRNA expression level, #2 HY 6 hr: 1.98
[1]; cell type #2, hypoxia 18 hr
  mRNA expression level, #2 HY 18 hr: 2.16
[1]; cell type #2, normoxia
  mRNA expression level, #2 NO: 1.55
[1]; cell type #3, hypoxia 6 hr
  mRNA expression level, #3 HY 6 hr: 1.47
[1]; cell type #3, hypoxia 18 hr
  mRNA expression level, #3 HY 18 hr: 1.01
[1]; cell type #3, normoxia
  mRNA expression level, #3 NO: 1.18
[1]; cell type #4, hypoxia 6 hr
  mRNA expression level, #4 HY 6 hr: 0.49
[1]; cell type #4, hypoxia 18 hr
  mRNA expression level, #4 HY 18 hr: 0.67
[1]; cell type #4, normoxia
  mRNA expression level, #4 NO: 0.74
[1]; cell type #5, hypoxia 6 hr
  mRNA expression level, #5 HY 6 hr: 1.94
[1]; cell type #5, normoxia
  mRNA expression level, #5 NO: 1.53
[1]; cell type #6, hypoxia 6 hr
  mRNA expression level, #6 HY 6 hr: 0.98
[1]; cell type #6, hypoxia 18 hr
  #6 HY 18 hr (mRNA expression level): 0.96
[1]; cell type #6, normoxia
  mRNA expression level, #6 NO: 0.90
[1]; cell type #7, hypoxia 6 hr
  #7 HY 6 hr (mRNA expression level): 0.79
[1]; cell type #7, hypoxia 18 hr
  #7 HY 18 hr (mRNA expression level): 0.49
[1]; cell type #7, normoxia
  #7 NO (mRNA expression level): 0.71
[1]; cell type #8, hypoxia 6 hr
  #8 HY 6 hr (mRNA expression level): 0.90
[1]; cell type #8, hypoxia 18 hr
  #8 HY 18 hr (mRNA expression level): 0.93
[1]; cell type #8, normoxia
  #8 NO (mRNA expression level): 0.53
[1]; cell type #9, hypoxia 6 hr
  #9 HY 6 hr (mRNA expression level): 0.51
[1]; cell type #9, hypoxia 18 hr
  #9 HY 18 hr (mRNA expression level): 0.43
[1]; cell type #9, normoxia
  #9 NO (mRNA expression level): 0.81
[1]; cell type #10, hypoxia 6 hr
  #10 HY 6 hr (mRNA expression level): 10.9
[1]; cell type #10, hypoxia 18 hr
  #10 HY 18 hr (mRNA expression level): 11.79
[1]; cell type #10, normoxia
  #10 NO (mRNA expression level): 4.63
[1]; cell type #11, hypoxia 6 hr
  #11 HY 6 hr (mRNA expression level): 2.23
[1]; cell type #11, hypoxia 18 hr
  #11 HY 18 hr (mRNA expression level): 1.65
[1]; cell type #11, normoxia
  #11 NO (mRNA expression level): 1.85
[1]; hypoxia/normoxia induction ratio, 18 hr renal epithelial
  HIGHEST FOLD CHANGE IN HYPOXIA (hr hypoxia + cell type): 2.55 (18 hr renal epithelial) fold
Human macrophages; #1 no cytokines/normoxia
  mRNA EXPRESSION (experimental condition) #1: 0.58
Human macrophages; #2 no cytokines/hypoxia
  mRNA EXPRESSION (experimental condition) #2: 0.71
Human macrophages; #3 IL-10/normoxia
  mRNA EXPRESSION (experimental condition) #3: 1.00
Human macrophages; #4 IL-10/hypoxia
  mRNA EXPRESSION (experimental condition) #4: 1.32
Human macrophages; #5 LPS/IFN/normoxia
  mRNA EXPRESSION (experimental condition) #5: 1.56
Human macrophages; #6 LPS/IFN/hypoxia
  mRNA EXPRESSION (experimental condition) #6: 2.59

— patent US20030203372A1, “Analysis method” (priority 2000, published 2003)
